T1: mouse FcgRIV (mouse, UniProt A0A0B4J1G0 21-203)
T1 construct: Used as the soluble analyte in Biacore; also called mFcgRIV
T1 sequence: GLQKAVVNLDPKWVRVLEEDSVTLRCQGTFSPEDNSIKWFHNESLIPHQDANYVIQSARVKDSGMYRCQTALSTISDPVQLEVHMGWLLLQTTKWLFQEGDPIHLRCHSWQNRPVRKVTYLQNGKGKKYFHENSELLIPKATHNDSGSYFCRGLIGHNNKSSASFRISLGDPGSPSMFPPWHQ

T2: mouse FcgRII (mouse, UniProt P08101 30-210)
T2 construct: Used as the soluble analyte in Biacore; also called mFcgRII
T2 sequence (looked up): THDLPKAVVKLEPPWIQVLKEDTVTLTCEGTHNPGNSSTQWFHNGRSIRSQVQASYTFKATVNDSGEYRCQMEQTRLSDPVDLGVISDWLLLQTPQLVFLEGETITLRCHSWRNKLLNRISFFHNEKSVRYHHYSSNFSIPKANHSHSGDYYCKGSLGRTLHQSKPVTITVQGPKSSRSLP

T3: mouse FcgRIII (mouse, UniProt P08508 31-215)
T3 construct: Used as the soluble analyte in Biacore; also called mFcgRIII
T3 sequence (looked up): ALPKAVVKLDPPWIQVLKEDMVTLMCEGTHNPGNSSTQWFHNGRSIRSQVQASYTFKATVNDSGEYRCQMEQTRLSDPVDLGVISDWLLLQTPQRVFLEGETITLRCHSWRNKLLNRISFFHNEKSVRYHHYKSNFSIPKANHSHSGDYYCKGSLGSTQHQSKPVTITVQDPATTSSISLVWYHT

T4: mouse FcgRI (mouse, UniProt P26151 25-297)
T4 construct: Used as the soluble analyte in Biacore; also called mFcgRI
T4 sequence (looked up): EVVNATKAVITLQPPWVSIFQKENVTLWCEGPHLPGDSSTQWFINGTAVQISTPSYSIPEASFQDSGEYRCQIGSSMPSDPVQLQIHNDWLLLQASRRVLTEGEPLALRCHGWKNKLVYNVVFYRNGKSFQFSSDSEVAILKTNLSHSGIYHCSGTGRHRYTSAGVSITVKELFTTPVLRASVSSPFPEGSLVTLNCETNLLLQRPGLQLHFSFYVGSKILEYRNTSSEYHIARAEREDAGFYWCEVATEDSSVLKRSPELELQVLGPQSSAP

T5: mouse CD3 (mouse)
T5 chain: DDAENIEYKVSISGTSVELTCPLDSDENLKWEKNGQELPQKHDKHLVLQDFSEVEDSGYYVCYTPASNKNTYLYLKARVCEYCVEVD


Assays:
[1] = target: T1, mouse FcgRIV; assay: SPR Biacore T200, antibody captured on Protein A/G, FcgR as analyte, 25 C
Experimental: (§1) Anti-mouse CTLA4 antibody hUH02hUL01-mFa55 and control antibody hUH02hUL01-mIgG2a (the heavy chain variable region UH02 is SEQ ID NO: 28, the light chain variable region UL01 is SEQ ID NO: 29, the heavy chain constant region mIgG2a is SEQ ID NO: 32, and the light chain constant region mk1 is SEQ ID NO: 31) purified and prepared by the method of Reference Example 2-1 were analyzed for their antigen-antibody reactions with various mouse FcgRs (mFcgRI, II, III, and IV) using Biacore T200 (GE Healthcare). The running buffer used was 20 mmol/L ACES, 150 mmol/L NaCl, 0.05% (w/v) Tween20 at pH7.4, and measurements were taken at 25° C. Protein A/G was immobilized onto a Sensor Chip CM7 by amine coupling. hUH02hUL01-mFa55 was captured onto the sensorchip, and then FcgR was allowed to interact as an analyte for 120 seconds, and change in the bound amount was observed. The running buffer was used for dilution of hUH02hUL01-mFa55. The measurement results were analyzed by curve fitting using the Biacore T200 Evaluation Software (GE Healthcare) to calculate the association rate constants ka (1/Ms) and the dissociation rate constants kd (l/s). From those values, the dissociation constants KD (M) were determined.

[2] = target: T2, mouse FcgRII; assay: as above
Experimental: as §1

[3] = target: T3, mouse FcgRIII; assay: as above
Experimental: as §1

[4] = target: T4, mouse FcgRI; assay: as above
Experimental: as §1

[5] = target: T6, mouse CTLA4 (mouse, UniProt P09793 36-161, limits assumed); assay: SPR Biacore T200, bispecific antibody captured on Protein A/G, antigen as analyte, 37 C
T6 construct: Soluble antigen used as the analyte in Biacore; also called mCTLA4
Experimental: (§2) Anti-mouse CTLA4/anti-mouse CD3 bispecific antibodies (hUH02UL01/2C11-F760) purified and prepared by the method of Reference Example 3-1 were analyzed for their antigen-antibody reactions with each antigen (mCTLA4 and mCD3) using Biacore T200 (GE Healthcare). The running buffer used was HBS-EP+ at pH7.4, and measurements were taken at 37° C. Protein A/G was immobilized onto a Sensor Chip CM4 by amine coupling. hUH02UL01/2C11-F760 was captured onto the sensor chip, and then the antigen (mouse CTLA4 or mouse CD3) was allowed to interact as an analyte (for 120 seconds for mouse CTLA4 and for 90 seconds for mouse CD3), and changes in the bound amount were observed. The running buffer was used for dilution of hUH02UL01/2C11-F760. The measurement results were analyzed by curve fitting using the Biacore T200 Evaluation Software (GE Healthcare) to calculate the association rate constants ka (1/Ms) and the dissociation rate constants kd (l/s). From those values, the dissociation constants KD (M) were determined.

[6] = target: T5, mouse CD3; assay: as above
Experimental: as §2

| Binder | Kd [1] [nM] | koff [1] [s⁻¹] | kon [1] [M⁻¹ s⁻¹] | Kd [2] [nM] | koff [2] [s⁻¹] | kon [2] [M⁻¹ s⁻¹] | Kd [3] [nM] | koff [3] [s⁻¹] | kon [3] [M⁻¹ s⁻¹] | Kd [4] [nM] | koff [4] [s⁻¹] | kon [4] [M⁻¹ s⁻¹] | Kd [5] [nM] | koff [5] [s⁻¹] | kon [5] [M⁻¹ s⁻¹] | Kd [6] [nM] | koff [6] [s⁻¹] | kon [6] [M⁻¹ s⁻¹] |
| --- | --- | --- | --- | --- | --- | --- | --- | --- | --- | --- | --- | --- | --- | --- | --- | --- | --- | --- |
| control antibody hUH02hUL01-mIgG2a (antibody, Same variable regions as hUH02hUL01-mFa55, with an unmodified mouse IgG2a constant region) heavy: QVQLQESGPGLVKPSETLSLTCTVSGYSISSGYGWNWIRQPPGKGLEWIGFIYYEGSTYYNPSIKSRISITRDTSKNQFFLQVNSVTTEDTATYYCARQTGYFDYWGQGTLVTVSSAKTTAPSVYPLAPVCGDTTGSSVTLGCLVKGYFPEPVTLTWNSGSLSSGVHTFPAVLQSDLYTLSSSVTVTSSTWPSQSITCNVAHPASSTKVDKKIEPRGPTIKPCPPCKCPAPNLLGGPSVFIFPPKIKDVLMISLSPIVTCVVVDVSEDDPDVQISWFVNNVEVHTAQTQTHREDYNSTLRVVSALPIQHQDWMSGKEFKCKVNNKDLPAPIERTISKPKGSVRAPQVYVLPPPEEEMTKKQVTLTCMVTDFMPEDIYVEWTNNGKTELNYKNTEPVLDSDGSYFMYSKLRVEKKNWVERNSYSCSVVHEGLHNHHTTKSFSRTPGK light: DIVMTQSPDSLAVSLGERATINCKSSQSLFNSNAKTNYLNWYQQKPGQPPKLLIYYASTRHTGVPDRFSGSGSGTDFTLTISSLQAEDVAVYYCQQWYDYPYTFGAGTKVEIKRADAAPTVSIFPPSSEQLTSGGASVVCFLNNFYPKDINVKWKIDGSERQNGVLNSWTDQDSKDSTYSMSSTLTLTKDEYERHNSYTCEATHKTSTSPIVKSFNRNEC | 13 | 0.016 | 1.2e+06 | 780 | 1.1 | 1.3e+06 | 250 | 0.51 | 2e+06 | 6.1 | 0.0047 | 780000 | – | – | – | – | – | – |
| anti-mouse CTLA4 antibody hUH02hUL01-mFa55 (antibody, mouse IgG2a, kappa, Mouse IgG2a/kappa format; also called hUH02UL01-mFa55; ADCC-enhanced antibody) heavy: QVQLQESGPGLVKPSETLSLTCTVSGYSISSGYGWNWIRQPPGKGLEWIGFIYYEGSTYYNPSIKSRISITRDTSKNQFFLQVNSVTTEDTATYYCARQTGYFDYWGQGTLVTVSSAKTTAPSVYPLAPVCGDTTGSSVTLGCLVKGYFPEPVTLTWNSGSLSSGVHTFPAVLQSDLYTLSSSVTVTSSTWPSQSITCNVAHPASSTKVDKKIEPRGPTIKPCPPCKCPAPNLLGGPDVFIFPPKIKDVLMISLSPIVTCVVVDVSEDDPDVQISWFVNNVEVHTAQTQTHREDYNSTLRVVSALPIQHQDWMSGKEFKCKVNNKDLPAPIERTISKPKGSVRAPQVYVLPPPEEEMTKKQVTLTCMVTDFMPEDIYVEWTNNGKTELNYKNTEPVLDSDGSYFMYSKLRVEKKNWVERNSYSCSVVHEGLHNHHTTKSFSRTPGK light: DIVMTQSPDSLAVSLGERATINCKSSQSLFNSNAKTNYLNWYQQKPGQPPKLLIYYASTRHTGVPDRFSGSGSGTDFTLTISSLQAEDVAVYYCQQWYDYPYTFGAGTKVEIKRADAAPTVSIFPPSSEQLTSGGASVVCFLNNFYPKDINVKWKIDGSERQNGVLNSWTDQDSKDSTYSMSSTLTLTKDEYERHNSYTCEATHKTSTSPIVKSFNRNEC | 1.9 | 0.0028 | 1.5e+06 | 370 | 0.76 | 2.1e+06 | 260 | 0.62 | 2.4e+06 | 2.5 | 0.0031 | 1.2e+06 | – | – | – | – | – | – |
| anti-mouse CTLA4/anti-mouse CD3 bispecific antibody (hUH02UL01/2C11-F760) (bispecific antibody, human IgG1, kappa, N297A, also called T cell-redirecting antibody) heavy 1: QVQLQESGPGLVKPSETLSLTCTVSGYSISSGYGWNWIRQPPGKGLEWIGFIYYEGSTYYNPSIKSRISITRDTSKNQFFLQVNSVTTEDTATYYCARQTGYFDYWGQGTLVTVSSASTKGPSVFPLAPSSKSTSGGTAALGCLVKDYFPEPVTVSWNSGALTSGVHTFPAVLQSSGLYSLSSVVTVPSSSLGTQTYICNVNHKPSNTKVDKKVEPKSCDKTHTCPPCPAPELRGGPKVFLFPPKPKDTLMISRTPEVTCVVVDVSHEDPEVKFNWYVDGVEVHNAKTKPREEQYASTYRVVSVLTVLHQDWLNGKEYKCKVSNKALPAPIEKTISKAKGQPREPQVYTLPPSRDELTKNQVSLTCLVKGFYPSDIAVEWESNGQPENNYKTTPPYLDSDGSFFLYSKLTVDKSRWQQGNVFSCSVMHEALHNHYTQESLSLSP light 1: not shown heavy 2: EVQLVESGGGLVQPGKSLKLSCEASGFTFSGYGMHWVRQAPGRGLESVAYITSSSINIKYADAVKGRFTVSRDNAKNLLFLQMNILKSEDTAMYYCARFDWDKNYWGQGTMVTVSSASTKGPSVFPLAPSSKSTSGGTAALGCLVKDYFPEPVTVSWNSGALTSGVHTFPAVLQSSGLYSLSSVVTVPSSSLGTQTYICNVNHKPSNTKVDKKVEPKSCDKTHTCPPCPAPELRGGPKVFLFPPKPKDTLMISRTPEVTCVVVDVSHEDPEVKFNWYVDGVEVHNAKTKPREEQYASTYRVVSVLTVLHQDWLNGKEYKCKVSNKALPAPIEKTISKAKGQPREPQVYTLPPSRKELTKNQVSLTCLVKGFYPSDIAVEWESNGQPENNYKTTPPYLDSDGSFFLYSKLTVDKSRWQQGNVFSCSVMHEALHNHYTQKSLSLSP light 2: DIQMTQSPSSLPASLGDRVTINCQASQDISNYLNWYQQKPGKAPKLLIYYTNKLADGVPSRFSGSGSGRDSSFTISSLESEDIGSYYCQQYYNYPWTFGPGTKLEIKRTVAAPSVFIFPPSDEQLKSGTASVVCLLNNFYPREAKVQWKVDNALQSGNSQESVTEQDSKDSTYSLSSTLTLSKADYEKHKVYACEVTHQGLSSPVTKSFNRGEC | – | – | – | – | – | – | – | – | – | – | – | – | 1.23 | 0.00053 | 430000 | 1160 | 0.0712 | 61600 |

— US20180326058A1 (Chugai, published 2018)
